Reference: the NTF2 design screens of Basanta et al. (2020)

experiment: protease stability score; higher = more stable; yeast display proteolysis, trypsin and chymotrypsin;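 note: relative to predicted unfolded state with 0 unfolded-like and 1 meaning tenfold more protease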

Point of comparison: “SEAEERAEKFIELLTKALLTGDWRMISRMFDPHVRIIIGDKESHGMESLRDTLEHLRFDHINTRIEHVQVQGDWVEIHIRVHMRITVDGKEFHVETQMHYVLIKIDGKWVVREIEIR”, protease stability score 2.44. Against it:
- SEEEEEAERAIKLWIHNVLTGDEDSLTKLLDPHVKIIDYVNGVEINNHGREWVKHWLEHLRYDIIRIHEFRSQGDKVHVDGKSEGNYNGKHVETRVMFHLHVYNGVIKSVHIIHI — lower, 1.63
- DEEKKAIRKVWELVIHSLVTGDEDSVEKLLDPHVRVHINGVHLHGMETFRHTFHEWRLEIKSVHIQDMDSINGVARLDISFVGRFKFDGRVEETIIDIHLVVNKINGRWVIEEQKFE — lower, 1.48
- DEDTLIAKEIAELIIHALLTGDEDILKRLMDPTVKNDVNGVEFHGREILYKLLLEMRIHRVEYTHIDMRIYNGRAEVRIHGKIHVTINGVHDDKERRIDIIIVKINGKWTIESFVVHRL — higher, 2.53
- SEEDKELEEFFRMYIHAARTGDWHTLTRLLDPNVLLMVNGRETHGMDKVKELLKRLGVDYINIEHVEVHRMDFQGDKLRMDTTEDGFVNGVRTHRSVHHILVKVDGRWYIESVHIK — lower, 2.02
- SEDDERWEKFMEELERAAHTGDWRFFKKMIDPEVRIDINGKEIIGMDEYIRHEKERLKRLGHTNVDIQIIIHRTERQGDKLDVDTEIRIHIGDKTITFRMTLILIKVNGVWLIKAMIIH — lower, 1.56
- SEEEEEFRERLRILYEKLLTGDWRFFLKLADPNVRSIIDGRTWIGRDEFETAMRKFDEDLGFDHTHIRHYHIQGEKVQIHFEVRQGDKRITVEINLVIVNGRYKFVELRLSIH — lower, 1.4
- TEEDEMWHKFMEHYVHNFLTGDPNKAKKLADPDTRFEIDGKDVVGMERIIDEFLKVPGLRSEIKRVTFIGDKIHIDGRMIINGVETKVDIDIHVVNGVIKSIHIRVR — lower, 0.74
- SESEDLLETLERVIRRVDETGDERDFHEMLDPDARIIIGDKIHIGREASELWFKRVDHIHHRHIHQIRVIGNKMHIDIEVDGKIGDWRFRTRVELVLVKVNGKWMVHHININ — lower, 1.17
- SDKDKEFEKLFREYLRDLLTGDEESLRRLIDPNARFSYEVGDKTEERHGREEAVRWIIEIRIHSFRLRNSTYIGDKMHLEVESDGQYDGKRRFTEVHIEIILINGRVHEVHVWYV — lower, 1.01
- QEDEDFVRWALHVFMRYVLTGDEESLERLLDPDVRITVGNKHLHGMENATNELRHMSKQVDHIHDLRFHDVRSINGRIHETGIDDGIINGRRIHRESILVIEKVNGRWHFHSIRVL — lower, 0.836
- TEEKHMVLKIMEQVLQKWVTGDEDVLDHLLDPDDRLHLLQGDKFVEYHGWEEANKAWNEMRITHIELHDIRAQGDKVTSDGTLDGHFNGRRTRVRVRVHLIIVNGRLKEVELQLH — lower, 0.924
- DEEEKEAREALEEFIRSVHTGDEDHMVWMFDPNTRIEVGDKKLHGRELAEEFAERWKKHIRLEDVNLTEVHVQGEKVHIRGILHGTVGDKEVRRESEVMMLKVDGRWFLHSIKFK — lower, 0.463
- SEMEKLYRDLYKRFLDNWVTGDEEKLIKYADPNTRLHVGDKHHHGMEHISHLFLEFVYRADHHEYRIDRLEVVDGVAISDGRMREEIGEFELRFDVEIRIVIVNGRLKWIEVSFK — lower, 0.839
- DDIEHDVKFFMERWVEAINTGDWKLLKKLVDPDAKFLIGDKELHGRELYVRHVLELRYRTEMIDNKIEVYDGRVHADMQVHSTLHIDGRNVDIHTHTRVVTRKVDGQWRLKSMEIL — lower, 0.993
- DDSEHWARRFIHLLKRSLETGDEHLNKELADPHARIEVNGRELHGREDFSETLVRMGFNHVHITDFDVQGDKIELHIETDVGDKKIQVEFIVEKVNGRWLNRSMHIRIH — lower, 0.832
- SKLEEDAHKMLDKILHNIRTGDEESEHRLADPEVKFHIGDKTFHGMSLVSKLLLHLRIRTERIENVNIRVINGVAEVEMRGVRDGEFNGVRVQVTVEEHFIIDKINGRWIIREIHVHII — lower, 1.29
- DEENEILRELHRELVEAWLTGDEELLRRLHDPDVRVHIGDKDLVGMEQMIEDIRFWLRRFDHLRIHIHRVRAINGVIHVDGELQLFQGDKSIRHQVIIELEVVNGRIKNTKFSTI — lower, 1.4
- DEEDEASHLALRLLEFTMKTGDERVSKENFDPNVRIEINGVDLHGWEHLTRILREIRIHDVRIEHSEVQGEKLILHGRMHWRVNGRDIEVETQVHAIKVDGKWRTKRIHFD — lower, 1.49
- SEDEEMLRRIIEELNRAHKTGNWRRIAELMDPDVRLIIGDKENHGRSVLIEWLKRIDHIEVESVDIHHIDSQGDKIILHGQVHLINVYNGVEVQENRDMTVILIKVDGRWFFHSIRVR — higher, 2.56
- SDEETITREYIRILIKMMRTGDESTLTRLADPHVRVDINGKDLHGRESLVEEMHKLIRDLGVERIEVHFRNIHIQGEWIVIHIDLQIGDKRFEVRDIALKIDGRWVHKSIEIQ — lower, 1.33
- DELEEKIHRWAELFLKMVLTGNEEFFRHLFDPDARSDINGVRVIGREDMDEVLKFWLDHLRFEHWVYTEVRIYDGRMEVHTRHDIDVNGVLYRRQMRIHLDVVDGRVKEASITRE — lower, 1.37
- SEEEKRAKKLIEIFMESIETGDWKEIHRMMDPTTRLEQGDYEHHGRDEIRELWLQELLDLGVERIRVKVHHVDVIDGKAHVDVTIHFNGVTQRRHYVIVKIDGRWMIKLVIIR — lower, 1.81
- SELEELSKHHLELLTHSHRTGDEKSFVELLDPHARIHQGDFHFHGRKLIDEFFRQARIHHIHVDDSELQGNWVFVHGRVEGNFNGVRSKITTHIIELKVNGRWLLHNVHIA — lower, 0.779
- HEEQELLEEFVEKLRQTLETGDEHFTRELLDPNVRYVQGDKEWHGRDLAAELNKKLGIKVVDIKHVRYWNGRLDLRGEDQVGDKTTHTILHVDKFNGRWFYKEVIFV — lower, 0.721
- REQEELMREYYEIHTHVLKTGNEDALEKLLDPNVRIHIDGKELHGMEAWEILNKRFDHIRHSHIHDFRIIGDKLHIDGRQKGVVDGVEREVHVHIVIEKIDGRWKLKSFYFR — lower, 1.2
- DDEERILHRIKELFEAAMHTGDWRLEFQQADPHTRVEIGDKEIHGMENIFDMLEDFWRELGIDQIDVEVRDEDSHIQGDKIILHVDITLRYNGVQERFKSTIILQKIDGRWHKKTEHRG — lower, 1.16
- DEESEKVEHFLEELFRAMETGDEDQFRKLMDPNVRASYGDKEVHGRNDILHWIREYRERVKNLKLEVHRVRVRIYNGRVEIEMDTILRINGKEHKVTLTFDVTKVNGRWFIEHVEVEVR — lower, 1.37
- SEEEELMKKAMNTILESLKTGDFHTLENLVDPTARSDINGVILHGRELMHHEWERLLRELGVDVWEINEIHLRYVDGVVRIDIDGKVIIGDKSRTVHLRIIAHKIDGRWHIHSISFEVR — lower, 1.83
- TEEEDEASRLMEEFLKHHETGDWEELKKMADPDARYHETVNGKRIERHGRDDLITWLRKFLEKFKNMRLHIDEMRLIGNKNILHGTLRIGDKDIESRIILIIIDGRIKEIEIIIK — lower, 1
- SEKEDIERKWAERTLETIETGDEHTRRELLDPHVRIIINGKDHHGREFAEEEWRRLGVDHFRTHEYEIQGNFLHVRGEMEIDGKRVEVILNFTIVDGRIKQIEMVYL — lower, 2.03
- DEVEKFSRDMLHFVRHLWETGDPHLFSRLADPHAQVHIGDKRLHGREEFEKHIEEMIERFPGIRLNLRHFEVQGDKMLVNFEIRVGEKNFTIHLEARKINGRWYIESVEVR — lower, 0.894
- DEDKEESEKFFRDMHRAAETGDWREHLRLMDPHVRLVVGEYQHHGRETFEEILTEWFERVDHQELVIRHVRVYDGVADLDGEIIYHYGDKIIFVRYTIHVRKVDGRWRIKHIRIE — lower, 0.476
- SEDEEKSHRFRRELLESLFTGDFDRFKELADPHVKVDINGRDIHGMELLVRIWRREEKEAGVNYTKDHDLKDHDIINGRAKIDIRVHGIFNGREQTVEVYIFSLKVDGRWILTFMKIN — lower, 1.45
- SEEDKLAREIFEETIRILLTGDEEKLEELLDPRVRVHIHIGDKRIDLHGREEMSKWLHEIRIEHFHIDDLKVQGDKLHADTHEVVRIGDKRIETRTEWELVVVNGRLKELHIRVK — lower, 1.74
- DEDLERARHAIEELIENWRTGNFREIERLMDPNVRIIIGDKTLHGRESMHRFVEEARLEHFELRHVSIVNGRVHVHGTEDWRIGDKRETREVRIVIHKVDGRWNFEFKIIH — lower, 0.983
- DEDERFTKFAWELLVKALVTGDEDSLKDLFDPHARIFYNGRINHGRESFVKHLMEIRFKRIEMRRFDFFDGRVRMEGEVEGEVDGKEDHYRIEIVVKKYDGRWELKEFRLV — lower, 1.68
- DEDEEQLKEMWREFLEASRTGDEHRIKELADPNARLRQGDKRFHGREEFSRLIVEMRIRHIEIRRIRVVGDKIEITTELHVIYNGQHIEVDTHVIILKVNGRWSLTEMEER — lower, 0.905
- SDSEKVSREAWELMLRDHETGDEEAFQNNVDPHTRIHINGVDYHGWRDFVDLMRELRIEHVTLRDYRVIGNKMHIHGQVHGEIDGRRINMHVTIIARKINGRWILEHSIFV — lower, 1.97
- DETTQYIREILEIMRRTFHTGDFDTMLELMDPHARIVIGEKDEHGWEAAHHQMEYLLREWRIHDVEIRDVELQGDKIRVKLIVTGRIGDKLTLIDVELHVLKVNGKWYLKEISIR — lower, 1.19
- SEHEEASERMTRLTLHLFETGNEEVFNRLADPHTRVIINGQEHVGRETVIEFLKKERDELGADVLIIKDIDVERQGEKVEVIFHGEIKFNGRYYKVEIIIIYLKVDGKWFIESMKHIVK — lower, 2.37
- SEDEDFAKKWTDEILTAFLTGDWKLLSDLVDPNVRVIYGEFHFHGREQTIKWLEHHYREIRIHDYKIKHIEVQGEKVIVDGEVDRHYNGRRHRIHTEIIIIIFNGVIREIEFREN — lower, 2.05
- TEEDKMEHDYAKLFMFLERTGDETLFEKLVDPDVKHIFDGVHLHGREEVASFLHHLLREWRIHHIDLKRVDVVNGKIEIDGRRNGDFDGKRYETHFTIHVFLYDGRIKWFEIRIR — lower, 1.46
- SEEDTMAKTLTKMEIELLRTGDEDLLWRLADPNVKLHINGRDLHGRETFEEWMKRFLEQVDVLRIEHREIRTAEGHLELDMHVDSYFDGVRFTTRLIVEVIKVDGRWFIRFREEQ — lower, 1.21
- DEEEEMSKELAELLVKAFVTGDWEEMTSMADPRTRTDVNGKDLHGWDESLRVIEELLRKMGIKHSNIHTVRVQGNWIHIDIRVIVGDKYHEVEIRVLVVNGRLKYLEYRIK — lower, 1.98
- SEEDELAMEFMREQDRNQETGDWRRLSELADPNTRVEVNGREIHGMELWIKLLINKLREHGMEVRLHVERVEFYDGVADLDLRLYIHINGKDIHFHTQIIILKINGKWILKYIIIR — lower, 1.25
- DEKTEHERELSERLLKAILTGDEDLFKELADPNVRIISEIDGRKDESHGWTAWHRIMQSLGFNVMRIDHHELINGVQYVESTLDINGVRRKTHLIIRIINGKVKEVRFSID — lower, 1.88
- NELDKHTKEFAERWIKSVETGDWRSEEHLLDPHVKLETKVNGRDVRVVGREEVHRYLRELHEELGVDKVEFITRRIRLQGDKIDIDGELRINGRTHEAHIHLDIINGRIHSVRLQWT — lower, 1.44
- DEKEEHFTTMMEIWLEIFRTGDWERLEKLMDPNVRHREVVDGRHLHLHGMENVSRLLHERENKLGANHIDLTHADIVNGRASIEGRVNYGDKRHKIRFDIHIVNGRVQHIQDIKI — lower, -0.034
- SEEEEESKYALKIERELLYTGDWHLLTRYADPDVRATINGQKVIGRELFSHIFLEELDKLGMRIHDIRETHWTLINGVAIHHMRINTRQGEKSYHTEMNLISLKVDGRWLIQSYELG — lower, 0.523
